B1: amnionless (AMN): S37A (protein)
parent chain: MGVLGRVLLWLQLCALTQAVSKLWVPNTDFDVAANWSQNRTPCAGGAVEFPADKMVSVLVQEGHAVSDMLLPLDGELVLASGAGFGVSDVGSHLDCGAGEPAVFRDSDRFSWHDPHLWRSGDEAPGLFFVDAERVPCRHDDVFFPPSASFRVGLGPGASPVRVRSISALGRTFTRDEDLAVFLASRAGRLRFHGPGALSVGPEDCADPSGCVCGNAEAQPWICAALLQPLGGRCPQAACHSALRPQGQCCDLCGAVVLLTHGPAFDLERYRARILDTFLGLPQYHGLQVAVSKVPRSSRLREADTEIQVVLVENGPETGGAGRLARALLADVAENGEALGVLEATMRESGAHVWGSSAAGLAGGVAAAVLLALLVLLVAPPLLRRAGRLRWRRHEAAAPAGAPLGFRNPVFDVTASEELPLPRRLSLVPKAAADSTSHSYFVNPLFAGAEAEA
B2: amnionless (AMN): S37A/T41I (protein)
parent chain: B1 parent chain
B3: N-terminal fragment of cubilin (residues 26–135) (domain or fragment, human, UniProt O60494 26-135, looked up)
chain: GELELQRQKRSINLQQPRMATERGNLVFLTGSAQNIEFRTGSLGKIKLNDEDLSECLHQIQKNKEDIIELKGSAIGLPQNISSQIYQLNSKLVDLERKFQGLQQTVDKKV
notes: The methods name 'human' before AMN only ('human AMN ... and the N-terminal fragment of cubilin'); Cloned into the NdeI site of multiple cloning site 2 of pACYCDuet-1; also called trimeric cubilin; source: also in E. coli lysate / His-tag column eluate with the AMN T41I mutant

How the values were obtained:
[1] = flow cytometry, cubilin surface expression, CHO K1; conditions: glycan lost; control: wild type AMN co-transfected with cubilin
[2] = target: the molecule itself; assay: crystal structure; AMN(20–357) and cubilin(26–135) co-expressed in E. coli and co-purified; crystals at 4 °C, sitting drop, 1.5 M magnesium sulphate, 0.1 M MES pH 5.5; 2.3 Å, SAD phasing

Protein | localisation_or_trafficking [1] | stoichiometry N [2]
B1 | no change | 
B2 | no change | 
B3 |  | 3

From publication PMC6283879, “Structural assembly of the megadalton-sized receptor for intestinal vitamin B12 uptake and kidney protein reabsorption” (Nature Communications, 2018)
